These results are taken from the RNAGym collection of RNA variant scans (doi:10.1073/pnas.2313332121).

The labels stand for the following.
B1: TPR 5TU (parent)
chain: GGAUCUUCUCGAUCUAACAAAAAAGACAAAUCUGCCACAAAGCUUGAGAGCAUCUUCGGAUGCAGAGGCGGCAGCCUUCGGUGGCGCGAUAGCGCCAACGUUCUCAACUAUGACACGCAAAACGCGUGCUCCGUUGAAUGGAGUUUAUCAUG

This sample holds only a part of the variants without activity.

In this data set the parent is B1. As to the kind of experiment: polymerase ribozyme fitness, log enrichment relative to wild type (log ratio); higher = more active; in vitro selection for triplet polymerase activity. An outline of the steps: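 Fitness measures genotype enrichment against wild-type enrichment on a logarithmic scale, with inverse-variance-weighted averaging of replicates. The logarithm is base 2, and genotypes were kept only with ≥10 input reads and ≥1 read per output in Illumina sequencing. The sequenced libraries came from one triplicate in vitro selection round, including frozen incubation at −7 °C, of PCR-built, transcribed mutant libraries of each subunit of a heterodimeric triplet polymerase ribozyme.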
On to C18G A37C C93A A115G, for which the “polymerase ribozyme fitness (log ratio)” value was -4.01. On to A19C U31A C38A G80A A98U, for which the “polymerase ribozyme fitness (log ratio)” value is -0.863. In the case of C18U U56A G83A U102A U144A, the “polymerase ribozyme fitness (log ratio)” value was -3.72. Consider C18G A26C C54A G62A C76G C87A A97C A150U, for which the “polymerase ribozyme fitness (log ratio)” value was at most -4.2.

As for C18G A22G A23C C69A G86U, the “polymerase ribozyme fitness (log ratio)” value is at most -4.2. For A19C C35U C95U, the “polymerase ribozyme fitness (log ratio)” value is 0.438.

Consider A19C C93U, for which the “polymerase ribozyme fitness (log ratio)” value came to 0.111.

For A19C C93G, the “polymerase ribozyme fitness (log ratio)” value was -2.84. In the case of A19C G58C C87A C95A A98G, the “polymerase ribozyme fitness (log ratio)” value was at most -4.2. As for C18U A91G, the “polymerase ribozyme fitness (log ratio)” value was -3.63.

In the case of C18G A20C G34U U55G C118U C123U, the “polymerase ribozyme fitness (log ratio)” value was -4.18. Take A19C C54U: the “polymerase ribozyme fitness (log ratio)” value is -0.474. As to A19C C57A A119G G128A, the “polymerase ribozyme fitness (log ratio)” value is -4.12.

For the variant C18U U53A C95U C99G, the “polymerase ribozyme fitness (log ratio)” value was -3.76. For C18U G83A, the “polymerase ribozyme fitness (log ratio)” value was -0.637. Consider C18U G83C, for which the “polymerase ribozyme fitness (log ratio)” value was -1.3.

In the case of C18U U55A C93A G128A G136A, the “polymerase ribozyme fitness (log ratio)” value was at most -4.2. For the variant A19G A30G C38U C85G A89U U130G, the “polymerase ribozyme fitness (log ratio)” value is at most -4.2. As for A19G C72G A89G, the figure is at most -4.2; as for C18G G94A, -1.09.

In the case of A19C U45A G59U U148A C149G, the “polymerase ribozyme fitness (log ratio)” value was at most -4.2.

As for A19C A41C G48C C87U A91C A115C A122U G136C U145A, the “polymerase ribozyme fitness (log ratio)” value is at most -4.2. With C18A U33A U56A G88A C114U U130A, the “polymerase ribozyme fitness (log ratio)” value is at most -4.2. Consider A19C A52G G88A A106G U139A, for which the “polymerase ribozyme fitness (log ratio)” value is at most -4.2.

For A19G C57G G84U, the “polymerase ribozyme fitness (log ratio)” value is -2.3. Regarding C18A U56A G58C G94A, the “polymerase ribozyme fitness (log ratio)” value is -0.964.

Take C18G A21G: the “polymerase ribozyme fitness (log ratio)” value was -0.433. On to A19C A39U U53G A89U U104G C108A G136A A138C U145A, for which the “polymerase ribozyme fitness (log ratio)” value was at most -4.2.

With A19G A40C C93U, the “polymerase ribozyme fitness (log ratio)” value is -0.92. Next, C18G A19C G88A G92U C95U U134A: -4.03. In the case of C18G U61A, the “polymerase ribozyme fitness (log ratio)” value was -0.567.

Regarding C18U G34U G70A C85U C87U A91C G117A, the “polymerase ribozyme fitness (log ratio)” value is at most -4.2. As for A19C U55A A91G, the figure is -2.67; as for C18U C93G, -3.19. Take C18U C93U: the “polymerase ribozyme fitness (log ratio)” value is -1.73. On to A19C C54A C96U A122G G133C, for which the “polymerase ribozyme fitness (log ratio)” value is -2.39. With C18G A20C A52G A73U A120G, the “polymerase ribozyme fitness (log ratio)” value is -3.02. Take C18G C32G A66U A89G C95G A107U: the “polymerase ribozyme fitness (log ratio)” value is at most -4.2. For the variant A19G C32A U56G C57U U82A, the “polymerase ribozyme fitness (log ratio)” value was at most -4.2. As for A19C G58C C95U G140U, the figure is -3.88; as for A19C G62U C95U C96A, -2.36; as for A19G C87G G92A U134A, at most -4.2. Next, A19G A30G G42C G50A C85U U109A A120G: at most -4.2. As for C18G G83C C85U C96G A115C C116G U134A, the figure is at most -4.2; as for C18A A20U G71C G92C G143U U144G, at most -4.2. On to A19C C27A A47C G58A G59A A91G C123A, for which the “polymerase ribozyme fitness (log ratio)” value was at most -4.2. For the variant A19C C85U, the “polymerase ribozyme fitness (log ratio)” value was -0.536. On to C18U A52U, for which the “polymerase ribozyme fitness (log ratio)” value is -1.92.

For A19C C87U, the “polymerase ribozyme fitness (log ratio)” value was -0.722. As for C18A U56A C85G C96A, the “polymerase ribozyme fitness (log ratio)” value is -3.54. As for A19G A29U C95U A122G, the figure is at most -4.2; as for C18G U44G U55G G58C C93A, at most -4.2; as for C18U A97G C131G, -3.22.

Consider C18U A29U G68A C85U, for which the “polymerase ribozyme fitness (log ratio)” value is at most -4.2. For the variant A19G C57U G67U G94A C105A, the “polymerase ribozyme fitness (log ratio)” value is at most -4.2. For the variant C18U A20U G59A G94A C116G A142G A150G, the “polymerase ribozyme fitness (log ratio)” value is at most -4.2. On to C18U U53A G74C A107U U135C G140C, for which the “polymerase ribozyme fitness (log ratio)” value was at most -4.2. As for A19G A73U G94C, the figure is -2.39; as for C18U G80U U148C, -3.99; as for C18U C54U C93G A119C, at most -4.2. Take C18U U31G A41G U56A C63U C95U C96G U144C: the “polymerase ribozyme fitness (log ratio)” value was -2.53. Consider A19G C87G, for which the “polymerase ribozyme fitness (log ratio)” value is at most -4.2. Turning to A19G C85G G117A A137G, the “polymerase ribozyme fitness (log ratio)” value was -2.73. As to A19C C54A U78G C96U G141C, the “polymerase ribozyme fitness (log ratio)” value was at most -4.2. As to A19C C43U C51G G71A C87G C105U C108U G141C, the “polymerase ribozyme fitness (log ratio)” value was at most -4.2. As to C18U G94A, the “polymerase ribozyme fitness (log ratio)” value is -1.37.

Consider A19C A21U A40C A60C C96G A110G G136U, for which the “polymerase ribozyme fitness (log ratio)” value was at most -4.2. As for C18G G34U C57U C96U A147U, the “polymerase ribozyme fitness (log ratio)” value was -2.53. For C18G U146C, the “polymerase ribozyme fitness (log ratio)” value was -0.0606. Consider A19C C72A A107U G143A, for which the “polymerase ribozyme fitness (log ratio)” value was at most -4.2. In the case of A19G A39U U55G A121C, the “polymerase ribozyme fitness (log ratio)” value was -2.95. For C18U G65A, the “polymerase ribozyme fitness (log ratio)” value is -1.77. Consider A19C U56A G94A C99U U135A U148A U151G, for which the “polymerase ribozyme fitness (log ratio)” value was at most -4.2. Turning to C18G U56A, the “polymerase ribozyme fitness (log ratio)” value was -0.693. As for A19C C51A C75A C93A G117C, the figure is at most -4.2; as for A19C G34A C57U G86C C96U A98U, -3.16. As for C18G A20U G84U, the figure is -3.75; as for C18G C27U A40U C51U A52C C57G G88U C105U, at most -4.2; as for C18G A26U A47U G67C C105G U146A C149G, at most -4.2. Next, A19G C38U G50A G86A C105A C116A A121U G141C: at most -4.2.

For the variant A19C G62C G84A A89G G117A, the “polymerase ribozyme fitness (log ratio)” value was -2.57.

Consider C18G G42A U45A G58U A122C A142G, for which the “polymerase ribozyme fitness (log ratio)” value was at most -4.2. With A19G A73G C85A, the “polymerase ribozyme fitness (log ratio)” value was -1.82.
